Experimental data taken from FireProtDB (doi:10.1002/pro.2375).

B1: Amylosucrase, Q9ZEU2 (parent)
chain: MLTPTQQVGLILQYLKTRILDIYTPEQRAGIEKSEDWRQFSRRMDTHFPKLMNELDSVYGNNEALLPMLEMLLAQAWQSYSQRNSSLKDIDIARENNPDWILSNKQVGGVCYVDLFAGDLKGLKDKIPYFQELGLTYLHLMPLFKCPEGKSDGGYAVSSYRDVNPALGTIGDLREVIAALHEAGISAVVDFIFNHTSNEHEWAQRCAAGDPLFDNFYYIFPDRRMPDQYDRTLREIFPDQHPGGFSQLEDGRWVWTTFNSFQWDLNYSNPWVFRAMAGEMLFLANLGVDILRMDAVAFIWKQMGTSCENLPQAHALIRAFNAVMRIAAPAVFFKSEAIVHPDQVVQYIGQDECQIGYNPLQMALLWNTLATREVNLLHQALTYRHNLPEHTAWVNYVRSHDDIGWTFADEDAAYLGISGYDHRQFLNRFFVNRFDGSFARGVPFQYNPSTGDCRVSGTAAALVGLAQDDPHAVDRIKLLYSIALSTGGLPLIYLGDEVGTLNDDDWSQDSNKSDDSRWAHRPRYNEALYAQRNDPSTAAGQIYQGLRHMIAVRQSNPRFDGGRLVTFNTNNKHIIGYIRNNALLAFGNFSEYPQTVTAHTLQAMPFKAHDLIGGKTVSLNQDLTLQPYQVMWLEIA

Variants of: B1
Details: Neisseria polysaccharea; pH 7; Thermal; DSF; Tris 50 mM; structure 1G5A; whole UniProt chain shown

Row | Variant | change of melting temperature, mutant - wild type (higher = more stable)
1 | D152I | -1.6 °C
2 | D152A | 0.2 °C
3 | D152E | -1.4 °C
4 | F258N | -3.2 °C
5 | F258Y | -0.8 °C
6 | D515A | 0.8 °C
7 | D515I | 0.6 °C
8 | H400P | 2.2 °C
9 | H400G | 0.8 °C
10 | H400Q | -0.4 °C
11 | H400K | -1.6 °C
12 | H400I | -0.2 °C
13 | H400V | 0.2 °C
14 | H400W | 0.4 °C
15 | H400C | 0.8 °C
16 | H400T | 0.4 °C
17 | H400Y | 2 °C
18 | H400M | 0.4 °C
19 | H400N | -0.2 °C
20 | H400S | 0.2 °C
21 | H400L | -0.4 °C
22 | H400F | -2.4 °C
23 | H400E | 0.4 °C
24 | R517A | 0 °C

Row | Variant | change of melting temperature, mutant - wild type (higher = more stable)
25 | R292H | 0.4 °C
26 | R292V | 1.8 °C
27 | R292K | 1.6 °C
28 | H195R | -5 °C
29 | H195D | -3.4 °C
30 | H195T | -4 °C
31 | H195A | -1.6 °C
32 | H195G | -2.8 °C
33 | H195W | -5.8 °C
34 | H195M | -0.2 °C
35 | H195N | -1.4 °C
36 | H195C | -0.2 °C
37 | H195Q | -3 °C
38 | H195K | -0.4 °C
39 | H195V | -4 °C
40 | H195Y | -3.2 °C
41 | H195I | -6.6 °C
42 | H195L | -6.4 °C
43 | Y155N | -1 °C
44 | Y155A | -1 °C
45 | Y155F | -0.2 °C
46 | R454F | 0.2 °C
47 | R454E | -2.2 °C
48 | R454A | -0.2 °C
